Laboratory results as given in publication PMC10598227, “Structural insights for selective disruption of Beclin 1 binding to Bcl-2” (Communications Biology, 2023).

Columns and labels:
Bcl-2(1-218) = target: T1, Bcl-2(1-218) (human, UniProt P10415 1-218); assay: NMR titration; 1H-15N TROSY-HSQC spectra of 10-45 uM uniformly 15N-labelled Bcl-2 fragment without and with Beclin 1 BH3 peptide added from a d6-DMSO stock; 25 °C, 20 mM sodium phosphate pH 7.3, 1 mM TCEP, 7% D2O; settings: both partners purified
T1 construct: Uniformly 15N-labelled for NMR. pSKB2 vector with HRV 3C cleavage site; also called cytoplasmic region of Bcl-2 (residues 1-218); Becl-2(1-218); source: E. coli BL21 (DE3), purified (Ni-NTA, His6-tag cleaved with 3C protease, Superdex 75); not shown: His6, N-terminal, cleaved

Bcl-2(1-206) = target: T2, Bcl-2(1-206) (human, UniProt P10415 1-206); assay: as above; settings: both partners purified
T2 construct: vector analogous to that of human Bcl-2(1-218), isoform alpha; Uniformly 15N-labelled for NMR; Vector was a gift from Beth Levine, called analogous to the pSKB2 vector of Bcl-2(1-218); also called Bcl-2 fragment lacking the juxtamembrane region; Bcl-2(1-2-6); source: E. coli BL21 (DE3), purified (Ni-NTA, His6-tag cleaved with 3C protease, Superdex 75); not shown: His6, N-terminal, cleaved
T2 sequence (P10415 1-206): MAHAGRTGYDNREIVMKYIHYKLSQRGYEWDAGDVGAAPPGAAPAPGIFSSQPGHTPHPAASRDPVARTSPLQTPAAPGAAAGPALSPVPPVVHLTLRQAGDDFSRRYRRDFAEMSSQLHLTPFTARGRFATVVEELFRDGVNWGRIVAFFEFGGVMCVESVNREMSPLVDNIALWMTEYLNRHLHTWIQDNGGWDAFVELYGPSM

T1 sequence (P10415 1-218): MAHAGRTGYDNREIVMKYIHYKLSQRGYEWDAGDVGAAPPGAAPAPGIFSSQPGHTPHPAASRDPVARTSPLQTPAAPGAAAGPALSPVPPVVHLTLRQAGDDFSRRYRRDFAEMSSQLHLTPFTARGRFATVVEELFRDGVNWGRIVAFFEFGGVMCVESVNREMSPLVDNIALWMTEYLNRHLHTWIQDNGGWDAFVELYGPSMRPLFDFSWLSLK

binding result (Bcl-2(1-218)): binds
binding result (Bcl-2(1-206)): binds
B1: Beclin 1 BH3 peptide (peptide)
peptide: DGGTMENLSRRLKVTGDLFDIMSGQT
notes: Beclin 1, human, residues 105-130 (BH3 domain); L-amino acid peptide, dissolved in d6-dimethylsulfoxide; also called Beclin 1 BH3 domain; source: synthetic peptide (Protein Chemistry Technology Core, UT Southwestern), HPLC purified
